Target: transducin (Homo sapiens, UniProt P11488)
Assay: GTPyS uptake assay: effect of BR-rhodopsin loop 3 chimeras on GDP-GTP exchange on transducin
Assay type: biochemical
Procedure: The ability of the chimeric protein to promote GTP-GDP exchange was evaluated for each of three BR-rhodopsin loop 3 chimeras by evaluating the effect of the chimera on the rate of GDP-GTP exchange on transducin using a GTPyS uptake assay, as described below.
Chimeric or bacteriorhodopsin protein (1.7 uM) was incubated with 0.8 uM holotransducin with 10 nM ^35S radiolabeled GTPyS in buffer (20 mM Hepes (pH 7.5), 5 mM MgCl2, 1 mM DTT, 0.1 mM EDTA, and 20 mM NaCl). The reaction was incubated at 30° C. for 5, 10, 15 or 30 minutes. The reaction was terminated by transferring aliquots of the reaction mixture to nitrocellulose filters (0.45 um) prewetted with wash buffer (10 mM Tris (pH 7.5), 5 mM MgCl2, 100 mM NaC1, 0.1 mM EDTA) and placed on a vacuum manifold. The filters were then washed with 8 ml of wash buffer. The filters were then placed overnight in scintillation vials filled with 20 ml of scintillation cocktail. The activity of the vials was counted by a Liquid Scintillation Counter. For the BR-Rhodopsin loop 3 chimeras, in which the rhodopsin intracellular loop 3 replaced the native BR intracellular loop 3 and was fused from T157 on BR TM 5 to V167 on BR TM 6, activity was determined by an increased uptake of GTPS over basal exchange by transducin alone.
A time course study was next performed for Rhodopsin Insert Y223 to M253 (3C)
The following experiments repeated the study of GTPγS exchange with a new culture of the BR-Rhodopsin chimera for Rhodopsin Insert Y223 (3C) as well as three new chimeras.

[1] = 10 Minutes, new culture of 3C and three new chimeras

Sequence of transducin (P11488 2-350 limits assumed): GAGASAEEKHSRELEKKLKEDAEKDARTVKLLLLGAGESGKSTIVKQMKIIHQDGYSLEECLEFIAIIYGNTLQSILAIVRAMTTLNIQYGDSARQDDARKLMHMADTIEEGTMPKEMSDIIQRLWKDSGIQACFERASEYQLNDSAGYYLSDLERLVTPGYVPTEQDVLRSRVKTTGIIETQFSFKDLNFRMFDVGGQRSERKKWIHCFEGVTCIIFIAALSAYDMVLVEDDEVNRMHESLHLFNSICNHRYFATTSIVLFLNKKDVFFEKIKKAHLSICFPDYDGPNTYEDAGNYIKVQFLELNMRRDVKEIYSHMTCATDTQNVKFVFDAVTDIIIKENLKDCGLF
Sequence of transducin (P62873 2-340 partner limits assumed): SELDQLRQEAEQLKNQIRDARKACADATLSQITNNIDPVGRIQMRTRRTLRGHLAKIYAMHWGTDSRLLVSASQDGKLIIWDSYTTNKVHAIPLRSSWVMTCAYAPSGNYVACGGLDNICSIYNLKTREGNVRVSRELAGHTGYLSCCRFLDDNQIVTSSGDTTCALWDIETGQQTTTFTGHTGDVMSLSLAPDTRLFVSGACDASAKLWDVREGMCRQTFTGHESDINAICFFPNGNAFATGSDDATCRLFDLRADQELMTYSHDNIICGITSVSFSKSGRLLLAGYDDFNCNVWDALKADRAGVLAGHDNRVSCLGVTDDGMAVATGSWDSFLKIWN
Sequence of transducin (P63211 2-71 partner limits assumed): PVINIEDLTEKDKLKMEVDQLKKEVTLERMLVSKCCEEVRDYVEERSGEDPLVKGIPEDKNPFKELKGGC

B1: 3D: bacteriorhodopsin chimera, loop 3 replaced by bovine rhodopsin Q225-T251; loop amino acid sequence SEQ ID NO:32 (protein)
chain: QAQITGRPEWIWLALGTALMGLGTLYFLVKGMGVSDPDAKKFYAITTLVPAIAFTMYLSMLLGYGLTMVPFGGEQNPIYWARYADWLFTTPLLLLDLALLVDADQGTILALVGADGIMIGTGLVGALTKVYSYRFVWWAISTAAMLYILYVLFFGFTQLVFTVKEAAAQQQESATTQKAEKEVTVASTFKVLRNVTVVLWSAYPVVWLIGSEGAGIVPLNIETLLFMVLDVSAKVGFGLILLRSRAIFGEAEAPEPSAGDGAAATSD
Activation (×100%) Over Basal Exchange [1]: 1.0 ×100%

B2: 3B: bacteriorhodopsin chimera, loop 3 replaced by bovine rhodopsin Y223-T251; loop amino acid sequence SEQ ID NO:28 (protein)
chain: QAQITGRPEWIWLALGTALMGLGTLYFLVKGMGVSDPDAKKFYAITTLVPAIAFTMYLSMLLGYGLTMVPFGGEQNPIYWARYADWLFTTPLLLLDLALLVDADQGTILALVGADGIMIGTGLVGALTKVYSYRFVWWAISTAAMLYILYVLFFGFTYGQLVFTVKEAAAQQQESATTQKAEKEVTVASTFKVLRNVTVVLWSAYPVVWLIGSEGAGIVPLNIETLLFMVLDVSAKVGFGLILLRSRAIFGEAEAPEPSAGDGAAATSD
Activation (×100%) Over Basal Exchange [1]: 1.17 ×100%

B3: 3C: bacteriorhodopsin chimera, loop 3 replaced by bovine rhodopsin Y223-M253; loop amino acid sequence SEQ ID NO:30 (protein)
chain: QAQITGRPEWIWLALGTALMGLGTLYFLVKGMGVSDPDAKKFYAITTLVPAIAFTMYLSMLLGYGLTMVPFGGEQNPIYWARYADWLFTTPLLLLDLALLVDADQGTILALVGADGIMIGTGLVGALTKVYSYRFVWWAISTAAMLYILYVLFFGFTYGQLVFTVKEAAAQQQESATTQKAEKEVTRMVASTFKVLRNVTVVLWSAYPVVWLIGSEGAGIVPLNIETLLFMVLDVSAKVGFGLILLRSRAIFGEAEAPEPSAGDGAAATSD
Activation (3C) (×10°) over Basal Exchange (100 μM GDP, 10 Minutes): 1.67 ×10°
Activation by 3C (×100%) Over Basal Exchange (5 Minutes): 1.56 ×100%
Activation by 3C (×100%) Over Basal Exchange (10 Minutes): 1.95 ×100%
Specific counts (Lattice Form) (10 Minutes, 100 uM GDP): 12577 counts
Activation (×100%) Over Basal Exchange [1]: 1.44 ×100%
Specific counts (Lattice Form) [1]: 77125 counts
Specific counts (Lattice Form) (10 Minutes, no peptide (8 uM peptide experiment)): 51423 counts
SPECIFIC COUNTS: (Lattice Form) (10 Minutes, no peptide (50 uM peptide experiment)): 93448 counts
Activation by 3C (×100%) Over Basal Exchange (15 Minutes): 1.97 ×100%
Specific counts (Lattice Form) (time course, 5 min): 26273 counts
Specific counts (Lattice Form) (time course, 10 min): 51423 counts
Specific counts (Lattice Form) (time course, 15 min): 66566 counts

B4: 3E: bacteriorhodopsin chimera, loop 3 replaced by bovine rhodopsin G224-M253; loop amino acid sequence SEQ ID NO:34 (protein)
chain: QAQITGRPEWIWLALGTALMGLGTLYFLVKGMGVSDPDAKKFYAITTLVPAIAFTMYLSMLLGYGLTMVPFGGEQNPIYWARYADWLFTTPLLLLDLALLVDADQGTILALVGADGIMIGTGLVGALTKVYSYRFVWWAISTAAMLYILYVLFFGFTGQLVFTVKEAAAQQQESATTQKAEKEVTRMVASTFKVLRNVTVVLWSAYPVVWLIGSEGAGIVPLNIETLLFMVLDVSAKVGFGLILLRSRAIFGEAEAPEPSAGDGAAATSD
Activation (×100%) Over Basal Exchange [1]: 1.46 ×100%
